Assay results: patent publication US20080242633A1

Target: Apaf-1 (UniProt O14727)
Assay: cell-based or functional assay

Chain of UniProt O14727 (O14727 whole entry): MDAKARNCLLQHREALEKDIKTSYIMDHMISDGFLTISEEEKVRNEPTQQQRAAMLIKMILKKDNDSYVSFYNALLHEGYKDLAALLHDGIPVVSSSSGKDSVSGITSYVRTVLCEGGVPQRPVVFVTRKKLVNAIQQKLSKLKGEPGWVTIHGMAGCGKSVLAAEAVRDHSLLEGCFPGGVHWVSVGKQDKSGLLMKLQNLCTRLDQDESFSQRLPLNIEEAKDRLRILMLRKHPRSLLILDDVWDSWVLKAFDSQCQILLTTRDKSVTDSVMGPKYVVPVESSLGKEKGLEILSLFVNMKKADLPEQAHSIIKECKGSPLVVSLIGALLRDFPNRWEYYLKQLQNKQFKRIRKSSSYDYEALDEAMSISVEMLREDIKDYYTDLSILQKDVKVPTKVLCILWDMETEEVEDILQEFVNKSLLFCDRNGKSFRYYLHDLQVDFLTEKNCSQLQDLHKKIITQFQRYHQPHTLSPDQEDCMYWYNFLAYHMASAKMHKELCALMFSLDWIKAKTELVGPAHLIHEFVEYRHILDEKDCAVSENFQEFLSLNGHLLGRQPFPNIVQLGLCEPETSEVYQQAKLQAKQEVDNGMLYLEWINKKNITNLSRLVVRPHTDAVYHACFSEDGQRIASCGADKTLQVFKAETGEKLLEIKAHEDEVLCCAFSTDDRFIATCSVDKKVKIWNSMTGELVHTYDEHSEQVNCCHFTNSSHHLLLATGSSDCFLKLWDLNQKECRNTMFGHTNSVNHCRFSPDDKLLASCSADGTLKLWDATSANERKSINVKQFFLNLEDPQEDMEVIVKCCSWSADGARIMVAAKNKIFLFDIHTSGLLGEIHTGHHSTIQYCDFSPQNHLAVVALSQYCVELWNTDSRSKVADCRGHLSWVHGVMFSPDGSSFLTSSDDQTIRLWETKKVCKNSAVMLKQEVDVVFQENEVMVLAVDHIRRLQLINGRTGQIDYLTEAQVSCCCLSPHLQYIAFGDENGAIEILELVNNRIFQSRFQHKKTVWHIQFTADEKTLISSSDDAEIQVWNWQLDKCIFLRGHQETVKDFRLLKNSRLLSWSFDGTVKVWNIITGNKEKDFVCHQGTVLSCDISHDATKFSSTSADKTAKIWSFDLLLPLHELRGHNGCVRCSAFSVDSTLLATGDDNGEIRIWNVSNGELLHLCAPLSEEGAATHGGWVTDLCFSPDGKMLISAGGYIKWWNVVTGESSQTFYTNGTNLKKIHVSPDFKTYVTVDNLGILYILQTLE

caspase-3 activation activity (AMC production rate from Ac-DEVD-AMC, cell-free assay with U-937 cytosol) (fold greater than wild type): 1.4
Substance: CYCS(Gly42-Ser) (from UniProt P99999 2-105)
